For orientation: Kd means the concentration at which binding is half-saturated.

The target of the test is GST-Aβ42 (monomeric amyloid beta 1-42 as a GST-fusion protein) (UniProt P05067 672-713). Description: BLI. In general terms: In BLI a coated tip is dipped into the sample, and binding shifts an interference pattern.
GST-Aβ42 (monomeric amyloid beta 1-42 as a GST-fusion protein), sequence (P05067 672-713): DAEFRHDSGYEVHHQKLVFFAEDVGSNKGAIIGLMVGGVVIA

B1: human sTREM2 (aa 19-157), wild type, in solution (domain or fragment, UniProt Q9NZC2 19-157, looked up)
chain: HNTTVFQGVAGQSLQVSCPYDSMKHWGRRKAWCRQLGEKGPCQRVVSTHNLWLLSFLRRWNGSTAITDDTLGGTLTITLRNLQPHDAGLYQCQSLHGSEADTLRKVLVEVLADPLDHRDAGDLWFPGESESFEDAHVEH
Take B1: the Kd amounted to 3.8 µM.

B2: human TREM2 Ig domain (aa 19-134), wild type, without BirA tag, in solution (domain or fragment, UniProt Q9NZC2 19-134, looked up)
chain: HNTTVFQGVAGQSLQVSCPYDSMKHWGRRKAWCRQLGEKGPCQRVVSTHNLWLLSFLRRWNGSTAITDDTLGGTLTITLRNLQPHDAGLYQCQSLHGSEADTLRKVLVEVLADPLD
Molecule B2 had a Kd of 5.1 µM.

Source of the values: paper PMC8026773 (Alzheimer's & dementia : the journal of the Alzheimer's …, 2020).
